Results taken from publication PMC8666670 (2021).

Target: GlmU, glucosamine-1-phosphate N-acetyl transferase/N-acetyl-glucosamine-1-phosphate uridylyltransferase of E. … (E. coli, UniProt P0ACC7 1-456)
Test: SPR

GlmU, glucosamine-1-phosphate N-acetyl transferase/N-acetyl-glucosamine-1-phosphate uridylyltransferase of E. …, sequence (P0ACC7 whole entry): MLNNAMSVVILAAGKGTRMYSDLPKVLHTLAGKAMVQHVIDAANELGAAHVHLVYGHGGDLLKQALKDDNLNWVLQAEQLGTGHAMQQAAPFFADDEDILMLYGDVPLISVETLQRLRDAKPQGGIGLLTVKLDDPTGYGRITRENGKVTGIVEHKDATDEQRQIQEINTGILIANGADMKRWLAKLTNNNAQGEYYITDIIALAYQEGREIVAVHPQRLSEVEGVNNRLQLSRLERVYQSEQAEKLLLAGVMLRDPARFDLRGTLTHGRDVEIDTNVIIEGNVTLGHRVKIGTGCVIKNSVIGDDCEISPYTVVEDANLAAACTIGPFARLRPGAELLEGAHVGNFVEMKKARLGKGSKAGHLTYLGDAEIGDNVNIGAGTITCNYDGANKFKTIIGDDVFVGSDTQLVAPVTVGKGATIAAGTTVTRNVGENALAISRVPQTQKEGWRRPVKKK

Kd: 82.5 µM
B1: acetyl-acyl carrier protein (acetyl-ACP) (natural protein)
chain: MSTIEERVKKIIGEQLGVKQEEVTNNASFVEDLGADSLDTVELVMALEEEFDTEIPDEEAEKITTVQAAIDYINGHQA
modifications: prosthetic group with attached acetyl chain (acetyl thioester), made from apo-ACP and acetyl-CoA with [ACP]synthase
